Experiment [1] addresses equine FcRn (large alpha subunit p51) / equine beta-2-microglobulin complex, biotinylated (equine) (UniProt P30441). As to the kind of experiment: SPR (Biacore), pH 6.
For experiment [2] the target is unchanged. As to the kind of experiment: SPR (Biacore), pH 7.4. A general note: SPR reads the build-up and loss of mass on a sensor chip optically.

Numbering of substitutions follows the chain as printed. Numbers in names are those of the source.

Sequence of UniProt P30441 (P30441 21-118, one chain of several): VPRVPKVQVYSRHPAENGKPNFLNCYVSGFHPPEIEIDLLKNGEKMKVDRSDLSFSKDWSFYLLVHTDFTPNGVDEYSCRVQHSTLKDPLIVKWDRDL

B1: equine IgG1 N434W (antibody, part only; not given: Variable domains, not shown: another chain or arm of the molecule)
constant: ASTTAPKVFALAPGCGTTSDSTVALGCLVSGYFPEPVKVSWNSGSLTSGVHTFPSVLQSSGFYSLSSMVTVPASTWTSETYICNVVHAASNFKVDKRIEPIPDNHQKVCDMSKCPKCPAPELLGGPSVFIFPPNPKDTLMITRTPEVTCVVVDVSQENPDVKFNWYMDGVEVRTATTRPKEEQFNSTYRVVSVLRIQHQDWLSGKEFKCKVNNQALPQPIERTITKTKGRSQEPQVYVLAPHPDELSKSKVSVTCLVKDFYPPEINIEWQSNGQPELETKYSTTQAQQDSDGSYFLYSKLSVDRNRWQQGTTFTCGVMHEALHWHYTQKNVSKNPGK
B1: the Kd (commonly the free concentration of one partner at which half of the binding sites on the other are occupied at equilibrium, for simple one-to-one binding) in experiment [1] was 0.00186 µM; in experiment [2], 7.31 µM.

B2: equine IgG1 N434F (antibody, part only; not given: variable domains, not shown: another chain or arm of the molecule)
constant: B1 constant with W324F
For B2, the values for the Kd in experiment [1] and in experiment [2] were 0.00283 µM and 14.6 µM, respectively.
